Assay results from the RNAGym collection of RNA variant scans (doi:10.7554/elife.90254).

B1: LINE1-mini (parent)
chain: GGCAGAGCUCAACACAGCGUGGCAAAGUGGCUGUGGCUAGACUGCC

Variants of: B1
Test: self-cleavage, relative activity (ratio to wild type); higher = more cleavage; in vitro, sequencing; the parent is a self-cleaving ribozyme

Variant | self-cleavage
GGCAUCGCUCAACACAGCGUGGCAAAGUGGCUGUGGCUAGACUGCC [G5U A6C] | 0.16
GGCAUUGCUCAACACAGCGUGGCAAAGUGGCUGUGGCUAGACUGCC [G5U A6U] | 0.16
GGCAUGGCUCAACACAGCGUGGCAAAGUGGCUGUGGCUAGACUGCC [G5U A6G] | 0.07
GGCAUAGCUCAACACAGCGUGGCAGAGUGGCUGUGGCUAGACUGCC [G5U A25G] | 0.12
GGCAUAGCUCAACACAGCGUGGCAUAGUGGCUGUGGCUAGACUGCC [G5U A25U] | 0.08
GGCAUAGCUCAACACAGCGUGGCACAGUGGCUGUGGCUAGACUGCC [G5U A25C] | 0.05
GGCAUAGCUCAACACAGCGUGGCUAAGUGGCUGUGGCUAGACUGCC [G5U A24U] | 0.08
GGCAUAGCUCAACACAGCGUGGCGAAGUGGCUGUGGCUAGACUGCC [G5U A24G] | 0.19
GGCAUAGCUCAACACAGCGUGGCCAAGUGGCUGUGGCUAGACUGCC [G5U A24C] | 0.08
GGCAUAGCUCAACACAGCGUGGCAAAGUGGCUGUGGCUCGACUGCC [G5U A39C] | 0.06
GGCAUAGCUCAACACAGCGUGGCAAAGUGGCUGUGGCUUGACUGCC [G5U A39U] | 0.11
GGCAUAGCUCAACACAGCGUGGCAAAGUGGCUGUGGCUGGACUGCC [G5U A39G] | 0.04
GGCAUAGCUCAACACAGCGUGGCAAAGUGGCUGUGGCUAGACUGUC [G5U C45U] | 0.08
GGCAUAGCUCAACACAGCGUGGCAAAGUGGCUGUGGCUAGACUGGC [G5U C45G] | 0.08
GGCAUAGCUCAACACAGCGUGGCAAAGUGGCUGUGGCUAGACUGAC [G5U C45A] | 0.08
GGCACAGCUCAACACAGCGUGGCAAAGUGGCUGUGUCUAGACUGCC [G5C G36U] | 0.04
GGCACAGCUCAACACAGCGUGGCAAAGUGGCUGUGCCUAGACUGCC [G5C G36C] | 0.06
GGCACAGCUCAACACAGCGUGGCAAAGUGGCUGUGACUAGACUGCC [G5C G36A] | 0.06
GGCAUAGCUCACCACAGCGUGGCAAAGUGGCUGUGGCUAGACUGCC [G5U A12C] | 0.04
GGCAUAGCUCAGCACAGCGUGGCAAAGUGGCUGUGGCUAGACUGCC [G5U A12G] | 0.04
GGCAUAGCUCAUCACAGCGUGGCAAAGUGGCUGUGGCUAGACUGCC [G5U A12U] | 0.06
GGCAUAGCUCAACACAGCGUGGCAAAGUGGCUGUGGCUAGCCUGCC [G5U A41C] | 0.07
GGCAUAGCUCAACACAGCGUGGCAAAGUGGCUGUGGCUAGUCUGCC [G5U A41U] | 0.08

Variant | self-cleavage
GGCAUAGCUCAACACAGCGUGGCAAAGUGGCUGUGGCUAGGCUGCC [G5U A41G] | 0.06
GGCAUAGCUCAAGACAGCGUGGCAAAGUGGCUGUGGCUAGACUGCC [G5U C13G] | 0.23
GGCAUAGCUCAAUACAGCGUGGCAAAGUGGCUGUGGCUAGACUGCC [G5U C13U] | 0.11
GGCAUAGCUCAAAACAGCGUGGCAAAGUGGCUGUGGCUAGACUGCC [G5U C13A] | 0.09
GGCACAGCGCAACACAGCGUGGCAAAGUGGCUGUGGCUAGACUGCC [G5C U9G] | 0.04
GGCACAGCACAACACAGCGUGGCAAAGUGGCUGUGGCUAGACUGCC [G5C U9A] | 0.12
GGCACAGCCCAACACAGCGUGGCAAAGUGGCUGUGGCUAGACUGCC [G5C U9C] | 0.04
GGCAUAGCUCAACACAGCGUGGCAAAGUGGUUGUGGCUAGACUGCC [G5U C31U] | 0.06
GGCAUAGCUCAACACAGCGUGGCAAAGUGGGUGUGGCUAGACUGCC [G5U C31G] | 0.05
GGCAUAGCUCAACACAGCGUGGCAAAGUGGAUGUGGCUAGACUGCC [G5U C31A] | 0.04
GGCACAGCUCAACACAGCGUGGCAAAGUGGCUGUGGCUAGACUCCC [G5C G44C] | 0.04
GGCACAGCUCAACACAGCGUGGCAAAGUGGCUGUGGCUAGACUACC [G5C G44A] | 0.05
GGCACAGCUCAACACAGCGUGGCAAAGUGGCUGUGGCUAGACUUCC [G5C G44U] | 0.09
GGCACAGCUCAACACAGCGUGGCAAAGUGGCUGUCGCUAGACUGCC [G5C G35C] | 0.06
GGCACAGCUCAACACAGCGUGGCAAAGUGGCUGUUGCUAGACUGCC [G5C G35U] | 0.07
GGCACAGCUCAACACAGCGUGGCAAAGUGGCUGUAGCUAGACUGCC [G5C G35A] | 0.1
GGCAUAGCUCAACAAAGCGUGGCAAAGUGGCUGUGGCUAGACUGCC [G5U C15A] | 0.05
GGCAUAGCUCAACAUAGCGUGGCAAAGUGGCUGUGGCUAGACUGCC [G5U C15U] | 0.08
GGCAUAGCUCAACAGAGCGUGGCAAAGUGGCUGUGGCUAGACUGCC [G5U C15G] | 0.09
GGCAUAGCUCAACACAGCGUGGCAACGUGGCUGUGGCUAGACUGCC [G5U A26C] | 0.11
GGCAUAGCUCAACACAGCGUGGCAAGGUGGCUGUGGCUAGACUGCC [G5U A26G] | 0.12
GGCAUAGCUCAACACAGCGUGGCAAUGUGGCUGUGGCUAGACUGCC [G5U A26U] | 0.09
GGCACAGCUCAACACAGCGUGGCAAAGUGGCUGUGGCUAUACUGCC [G5C G40U] | 0.1

Variant | self-cleavage
GGCACAGCUCAACACAGCGUGGCAAAGUGGCUGUGGCUACACUGCC [G5C G40C] | 0.1
GGCACAGCUCAACACAGCGUGGCAAAGUGGCUGUGGCUAAACUGCC [G5C G40A] | 0.1
GGCACAGCUCAACACAGCGUGGCAAAGUGGCUGUGGCAAGACUGCC [G5C U38A] | 0.09
GGCACAGCUCAACACAGCGUGGCAAAGUGGCUGUGGCCAGACUGCC [G5C U38C] | 0.05
GGCACAGCUCAACACAGCGUGGCAAAGUGGCUGUGGCGAGACUGCC [G5C U38G] | 0.03
GGCACAGCUCAACACAGCGUGGCAAAGUGGCUGUGGCUAGACGGCC [G5C U43G] | 0.13
GGCACAGCUCAACACAGCGUGGCAAAGUGGCUGUGGCUAGACCGCC [G5C U43C] | 0.04
GGCACAGCUCAACACAGCGUGGCAAAGUGGCUGUGGCUAGACAGCC [G5C U43A] | 0.05
GGCACAGCUCAACACAGCGUGGCAAAGUGGCUGCGGCUAGACUGCC [G5C U34C] | 0.06
GGCACAGCUCAACACAGCGUGGCAAAGUGGCUGAGGCUAGACUGCC [G5C U34A] | 0.06
GGCACAGCUCAACACAGCGUGGCAAAGUGGCUGGGGCUAGACUGCC [G5C U34G] | 0.06
GGCAUAGCUCAACACAGCGUGGCAAAGUGGCUGUGGCUAGACUGCG [G5U C46G] | 0.13
GGCAUAGCUCAACACAGCGUGGCAAAGUGGCUGUGGCUAGACUGCA [G5U C46A] | 0.11
GGCAUAGCUCAACACAGCGUGGCAAAGUGGCUGUGGCUAGACUGCU [G5U C46U] | 0.07
GGCAUAGCUCCACACAGCGUGGCAAAGUGGCUGUGGCUAGACUGCC [G5U A11C] | 0.03
GGCAUAGCUCGACACAGCGUGGCAAAGUGGCUGUGGCUAGACUGCC [G5U A11G] | 0.02
GGCAUAGCUCUACACAGCGUGGCAAAGUGGCUGUGGCUAGACUGCC [G5U A11U] | 0.04
GGCACAGCUCAACACAGCGUGGCAAAGUGGCAGUGGCUAGACUGCC [G5C U32A] | 0.06
GGCACAGCUCAACACAGCGUGGCAAAGUGGCGGUGGCUAGACUGCC [G5C U32G] | 0.07
GGCACAGCUCAACACAGCGUGGCAAAGUGGCCGUGGCUAGACUGCC [G5C U32C] | 0.1
GGCAUAGCUCAACACAGGGUGGCAAAGUGGCUGUGGCUAGACUGCC [G5U C18G] | 0.06
GGCAUAGCUCAACACAGAGUGGCAAAGUGGCUGUGGCUAGACUGCC [G5U C18A] | 0.07
GGCAUAGCUCAACACAGUGUGGCAAAGUGGCUGUGGCUAGACUGCC [G5U C18U] | 0.1

Variant | self-cleavage
GGCACAGCUCAACACAGCGAGGCAAAGUGGCUGUGGCUAGACUGCC [G5C U20A] | 0.04
GGCACAGCUCAACACAGCGGGGCAAAGUGGCUGUGGCUAGACUGCC [G5C U20G] | 0.06
GGCACAGCUCAACACAGCGCGGCAAAGUGGCUGUGGCUAGACUGCC [G5C U20C] | 0.18
GGCAUAGCUCAACACGGCGUGGCAAAGUGGCUGUGGCUAGACUGCC [G5U A16G] | 0.06
GGCAUAGCUCAACACUGCGUGGCAAAGUGGCUGUGGCUAGACUGCC [G5U A16U] | 0.06
GGCAUAGCUCAACACCGCGUGGCAAAGUGGCUGUGGCUAGACUGCC [G5U A16C] | 0.03
GGCAUAGCUCAACACAUCGUGGCAAAGUGGCUGUGGCUAGACUGCC [G5U G17U] | 0.05
GGCAUAGCUCAACACAACGUGGCAAAGUGGCUGUGGCUAGACUGCC [G5U G17A] | 0.1
GGCAUAGCUCAACACACCGUGGCAAAGUGGCUGUGGCUAGACUGCC [G5U G17C] | 0.06
GGCAUAGCUCAACACAGCUUGGCAAAGUGGCUGUGGCUAGACUGCC [G5U G19U] | 0.1
GGCAUAGCUCAACACAGCCUGGCAAAGUGGCUGUGGCUAGACUGCC [G5U G19C] | 0.05
GGCAUAGCUCAACACAGCAUGGCAAAGUGGCUGUGGCUAGACUGCC [G5U G19A] | 0.33
GGCAUAGCUCAACACAGCGUGGGAAAGUGGCUGUGGCUAGACUGCC [G5U C23G] | 0.12
GGCAUAGCUCAACACAGCGUGGAAAAGUGGCUGUGGCUAGACUGCC [G5U C23A] | 0.11
GGCAUAGCUCAACACAGCGUGGUAAAGUGGCUGUGGCUAGACUGCC [G5U C23U] | 0.12
GGCAUAGCUCAACACAGCGUGGCAAAGUGGCUGUGGCUAGAGUGCC [G5U C42G] | 0.04
GGCAUAGCUCAACACAGCGUGGCAAAGUGGCUGUGGCUAGAAUGCC [G5U C42A] | 0.38
GGCAUAGCUCAACACAGCGUGGCAAAGUGGCUGUGGCUAGAUUGCC [G5U C42U] | 0.08
GGCAUAGAUCAACACAGCGUGGCAAAGUGGCUGUGGCUAGACUGCC [G5U C8A] | 0.53
GGCAUAGGUCAACACAGCGUGGCAAAGUGGCUGUGGCUAGACUGCC [G5U C8G] | 0.14
GGCAUAGUUCAACACAGCGUGGCAAAGUGGCUGUGGCUAGACUGCC [G5U C8U] | 0.26
GGCAUAGCUCAACGCAGCGUGGCAAAGUGGCUGUGGCUAGACUGCC [G5U A14G] | 0.06
GGCAUAGCUCAACUCAGCGUGGCAAAGUGGCUGUGGCUAGACUGCC [G5U A14U] | 0.07

Variant | self-cleavage
GGCAUAGCUCAACCCAGCGUGGCAAAGUGGCUGUGGCUAGACUGCC [G5U A14C] | 0.06
GGCAUAGCUGAACACAGCGUGGCAAAGUGGCUGUGGCUAGACUGCC [G5U C10G] | 0.03
GGCAUAGCUAAACACAGCGUGGCAAAGUGGCUGUGGCUAGACUGCC [G5U C10A] | 0.03
GGCAUAGCUUAACACAGCGUGGCAAAGUGGCUGUGGCUAGACUGCC [G5U C10U] | 0.06
GGCACAGCUCAACACAGCGUGGCAAAGGGGCUGUGGCUAGACUGCC [G5C U28G] | 0.02
GGCACAGCUCAACACAGCGUGGCAAAGAGGCUGUGGCUAGACUGCC [G5C U28A] | 0.1
GGCACAGCUCAACACAGCGUGGCAAAGCGGCUGUGGCUAGACUGCC [G5C U28C] | 0.05
GGCACAGCUCAACACAGCGUGGCAAAGUGCCUGUGGCUAGACUGCC [G5C G30C] | 0.07
GGCACAGCUCAACACAGCGUGGCAAAGUGACUGUGGCUAGACUGCC [G5C G30A] | 0.02
GGCACAGCUCAACACAGCGUGGCAAAGUGUCUGUGGCUAGACUGCC [G5C G30U] | 0.17
GGCACAGCUCAACACAGCGUGGCAAAGUGGCUUUGGCUAGACUGCC [G5C G33U] | 0.06
GGCACAGCUCAACACAGCGUGGCAAAGUGGCUCUGGCUAGACUGCC [G5C G33C] | 0.03
GGCACAGCUCAACACAGCGUGGCAAAGUGGCUAUGGCUAGACUGCC [G5C G33A] | 0.09
GGCAUAGCUCAACACAGCGUGGCAAAGUGGCUGUGGAUAGACUGCC [G5U C37A] | 0.06
GGCAUAGCUCAACACAGCGUGGCAAAGUGGCUGUGGGUAGACUGCC [G5U C37G] | 0.07
GGCAUAGCUCAACACAGCGUGGCAAAGUGGCUGUGGUUAGACUGCC [G5U C37U] | 0.05
GGCAUAGCUCAACACAGCGUGGCAAAGUGGCUGUGGCUAGACUGCC [G5U] | 0.14
GGCAUAUCUCAACACAGCGUGGCAAAGUGGCUGUGGCUAGACUGCC [G5U G7U] | 0.13
GGCAUACCUCAACACAGCGUGGCAAAGUGGCUGUGGCUAGACUGCC [G5U G7C] | 0.11
GGCAUAACUCAACACAGCGUGGCAAAGUGGCUGUGGCUAGACUGCC [G5U G7A] | 0.43
